{
  "source": "paper PMC12501149",
  "about": "(2025)",
  "key": {"[1]": {"biological_target": "TcdB 1285-1804 with C-terminal Avitag (RBD toxin fragment), biotinylated (Clostridioides difficile, UniProt P18177 1285-1804)", "sequence (P18177 1285-1804)": "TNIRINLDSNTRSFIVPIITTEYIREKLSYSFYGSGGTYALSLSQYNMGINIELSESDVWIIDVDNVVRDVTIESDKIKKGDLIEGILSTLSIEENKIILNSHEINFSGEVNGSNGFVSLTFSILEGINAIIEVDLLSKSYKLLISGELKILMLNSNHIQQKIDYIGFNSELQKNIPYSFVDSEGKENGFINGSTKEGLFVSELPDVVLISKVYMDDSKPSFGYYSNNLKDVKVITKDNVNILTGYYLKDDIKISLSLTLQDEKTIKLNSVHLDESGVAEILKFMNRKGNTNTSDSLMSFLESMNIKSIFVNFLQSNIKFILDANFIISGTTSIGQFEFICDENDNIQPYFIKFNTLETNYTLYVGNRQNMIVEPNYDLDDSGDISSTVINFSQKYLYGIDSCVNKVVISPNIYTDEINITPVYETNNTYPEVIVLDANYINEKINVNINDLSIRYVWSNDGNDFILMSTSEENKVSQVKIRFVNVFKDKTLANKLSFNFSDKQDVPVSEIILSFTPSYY", "test": "SPR"}, "[2]": {"biological_target": "Clostridioides difficile toxin B (TcdB), full-length TcdB1 (VP10463) (Clostridioides difficile, UniProt P18177 1-2366)", "sequence (P18177 whole entry)": "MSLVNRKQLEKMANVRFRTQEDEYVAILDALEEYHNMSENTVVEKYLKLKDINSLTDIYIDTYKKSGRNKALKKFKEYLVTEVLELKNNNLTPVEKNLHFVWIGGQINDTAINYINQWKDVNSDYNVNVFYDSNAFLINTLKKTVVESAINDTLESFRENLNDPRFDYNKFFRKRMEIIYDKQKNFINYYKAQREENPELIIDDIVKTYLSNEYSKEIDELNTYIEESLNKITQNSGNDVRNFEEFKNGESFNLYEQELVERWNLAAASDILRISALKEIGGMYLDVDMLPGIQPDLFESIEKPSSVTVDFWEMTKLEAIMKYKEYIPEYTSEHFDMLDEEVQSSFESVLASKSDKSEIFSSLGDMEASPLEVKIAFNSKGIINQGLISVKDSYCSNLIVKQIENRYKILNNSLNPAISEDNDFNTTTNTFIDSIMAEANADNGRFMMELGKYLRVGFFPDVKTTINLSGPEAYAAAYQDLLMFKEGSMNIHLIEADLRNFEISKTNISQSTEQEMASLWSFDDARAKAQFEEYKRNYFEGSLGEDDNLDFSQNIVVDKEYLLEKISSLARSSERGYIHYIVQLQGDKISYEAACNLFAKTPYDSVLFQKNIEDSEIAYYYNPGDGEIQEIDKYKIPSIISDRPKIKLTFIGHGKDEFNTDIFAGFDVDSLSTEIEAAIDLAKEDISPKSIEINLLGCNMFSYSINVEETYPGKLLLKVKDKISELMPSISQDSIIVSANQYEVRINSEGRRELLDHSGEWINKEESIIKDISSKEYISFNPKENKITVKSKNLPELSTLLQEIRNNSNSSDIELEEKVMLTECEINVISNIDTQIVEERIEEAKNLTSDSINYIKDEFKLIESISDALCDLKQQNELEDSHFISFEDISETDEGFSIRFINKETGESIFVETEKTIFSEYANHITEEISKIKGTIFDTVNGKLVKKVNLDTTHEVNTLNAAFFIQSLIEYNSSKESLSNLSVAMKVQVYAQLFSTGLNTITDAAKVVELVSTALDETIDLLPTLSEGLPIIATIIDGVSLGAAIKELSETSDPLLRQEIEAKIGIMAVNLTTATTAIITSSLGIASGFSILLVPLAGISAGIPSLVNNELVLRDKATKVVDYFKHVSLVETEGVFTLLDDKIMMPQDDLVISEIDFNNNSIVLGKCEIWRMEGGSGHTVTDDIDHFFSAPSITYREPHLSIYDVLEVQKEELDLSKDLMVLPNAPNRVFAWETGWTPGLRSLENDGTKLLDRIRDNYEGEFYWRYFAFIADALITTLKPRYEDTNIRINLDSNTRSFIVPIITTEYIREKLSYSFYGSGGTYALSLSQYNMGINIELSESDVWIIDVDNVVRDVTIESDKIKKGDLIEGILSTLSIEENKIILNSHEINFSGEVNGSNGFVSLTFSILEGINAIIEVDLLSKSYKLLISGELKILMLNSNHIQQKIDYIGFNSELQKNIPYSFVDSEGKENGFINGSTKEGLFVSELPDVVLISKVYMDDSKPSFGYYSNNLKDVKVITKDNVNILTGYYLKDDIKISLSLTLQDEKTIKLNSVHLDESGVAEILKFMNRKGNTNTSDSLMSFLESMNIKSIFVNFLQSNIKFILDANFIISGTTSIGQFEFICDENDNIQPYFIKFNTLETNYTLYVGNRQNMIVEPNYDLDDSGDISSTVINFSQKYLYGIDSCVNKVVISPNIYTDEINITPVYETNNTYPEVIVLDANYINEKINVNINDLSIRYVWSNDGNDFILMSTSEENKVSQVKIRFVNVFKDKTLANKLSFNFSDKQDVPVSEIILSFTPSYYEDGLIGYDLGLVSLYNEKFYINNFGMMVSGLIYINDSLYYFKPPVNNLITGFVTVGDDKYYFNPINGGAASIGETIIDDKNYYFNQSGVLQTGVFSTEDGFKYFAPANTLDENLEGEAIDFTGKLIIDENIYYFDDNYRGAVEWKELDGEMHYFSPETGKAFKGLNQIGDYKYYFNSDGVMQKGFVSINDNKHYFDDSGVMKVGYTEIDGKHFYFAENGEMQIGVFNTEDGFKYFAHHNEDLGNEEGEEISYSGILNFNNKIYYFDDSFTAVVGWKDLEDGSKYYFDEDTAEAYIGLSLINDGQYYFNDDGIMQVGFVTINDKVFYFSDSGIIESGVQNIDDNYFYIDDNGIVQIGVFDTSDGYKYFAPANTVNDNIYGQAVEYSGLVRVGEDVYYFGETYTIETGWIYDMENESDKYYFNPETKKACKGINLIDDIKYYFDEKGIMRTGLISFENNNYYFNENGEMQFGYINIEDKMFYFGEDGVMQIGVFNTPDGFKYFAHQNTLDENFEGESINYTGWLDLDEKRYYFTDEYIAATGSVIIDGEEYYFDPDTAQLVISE", "test": "SPR"}},
  "note": "Where no end group is shown, it is not given here.",
  "data": [
    {"binder": "fzd13 (designed binder) AEKEVQELIDKALNTPDPKVASKYIISAVYVAAKARDPSLFQSALDTAKKL", "values": [
      {"measurement": "Kd", "setting": "[1]", "value": 5.6, "unit": "pM"}
    ]},
    {"binder": "fzd48 (designed binder) KEELEKMIEELKKLIENGDKENFIKLFDEAFKKAKESRDPRTIASVWTLVLEFKNKN", "values": [
      {"measurement": "Kd", "setting": "[1]", "value": "< 10", "unit": "pM"}
    ]},
    {"binder": "cspg4 (designed minibinder) (designed binder) ENKLARAVVTVNKSWLATQLFVRLYRLCKAGDPRCEEVAEKLRKVLELQGVPETDIELVVEVAKG", "values": [
      {"measurement": "Kd", "setting": "[2]", "value": 2, "unit": "nM"}
    ]},
    {"binder": "ss2cspg18 (designed binder, disulfide (positions not given here)) MDEKVEKLKECLEKLKEKGDIKGVIDTERAIRICERSRHKEFCEWAIEKCENRIKES", "values": [
      {"measurement": "Kd", "setting": "[2]", "value": 0.87, "unit": "nM"}
    ]}
  ]
}
